Earlier results as cited in PMC3567247.
Where two headings read alike, the source gives them in different places. Values belong to the substance of their own block, whether it stands above or below them.

Key:
[1] = target: BCMA (Homo sapiens) (UniProt Q02223); assay: surface plasmon resonance
[2] = target: BR3 (Homo sapiens) (UniProt Q96RJ3); assay: surface plasmon resonance
[3] = target: BR3 (Homo sapiens) (UniProt Q96RJ3)
[4] = target: TACI (Homo sapiens) (UniProt O14836)
[5] = target: BCMA (Homo sapiens) (UniProt Q02223)
[6] = target: Barstar (Bacillus amyloliquefaciens) (UniProt P11540)
[7] = target: CD40L (Homo sapiens) (UniProt P29965)
[8] = target: CD40 (Homo sapiens) (UniProt P25942)
[9] = target: Im9 (Escherichia coli) (UniProt P13479)
[10] = target: Ribonuclease Inhibitor (UniProt P13489)
[11] = target: Ribonuclease Inhibitor (Sus scrofa) (UniProt P10775)
[12] = target: BPTI (Bos taurus) (UniProt P00974)

APRIL, sequence (O75888 105-250): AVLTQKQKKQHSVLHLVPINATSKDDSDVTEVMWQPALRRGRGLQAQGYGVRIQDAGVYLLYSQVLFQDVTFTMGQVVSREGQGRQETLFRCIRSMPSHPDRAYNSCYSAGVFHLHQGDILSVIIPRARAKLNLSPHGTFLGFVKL
Ribonuclease A, sequence (P61823 27-150): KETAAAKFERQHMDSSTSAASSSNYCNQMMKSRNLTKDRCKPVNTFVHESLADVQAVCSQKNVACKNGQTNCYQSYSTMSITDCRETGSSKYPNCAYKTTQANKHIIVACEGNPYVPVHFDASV
BCMA (Homo sapiens), sequence (Q02223 whole entry): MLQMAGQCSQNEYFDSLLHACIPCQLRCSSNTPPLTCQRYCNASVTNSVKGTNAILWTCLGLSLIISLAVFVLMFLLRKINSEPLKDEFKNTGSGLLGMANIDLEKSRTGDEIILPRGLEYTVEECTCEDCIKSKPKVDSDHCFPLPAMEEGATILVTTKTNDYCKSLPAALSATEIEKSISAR
BR3 (Homo sapiens), sequence (Q96RJ3 whole entry): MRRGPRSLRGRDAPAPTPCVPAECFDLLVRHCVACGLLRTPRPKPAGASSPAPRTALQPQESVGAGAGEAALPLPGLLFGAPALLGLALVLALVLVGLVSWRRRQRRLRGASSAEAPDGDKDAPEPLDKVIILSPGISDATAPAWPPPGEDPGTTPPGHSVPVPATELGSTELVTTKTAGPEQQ
CD40L (Homo sapiens), sequence (P29965 113-261): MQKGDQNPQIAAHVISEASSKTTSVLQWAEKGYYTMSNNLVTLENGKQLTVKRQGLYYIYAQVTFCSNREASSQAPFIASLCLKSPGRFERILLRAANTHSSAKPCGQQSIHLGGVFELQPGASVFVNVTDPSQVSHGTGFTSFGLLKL
CD40L, sequence (P29965 113-261): as above
Barstar (Bacillus amyloliquefaciens), sequence (P11540 2-90): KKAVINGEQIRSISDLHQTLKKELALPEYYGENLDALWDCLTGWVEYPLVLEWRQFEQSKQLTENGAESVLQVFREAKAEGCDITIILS
CD40 (Homo sapiens), sequence (P25942 21-277): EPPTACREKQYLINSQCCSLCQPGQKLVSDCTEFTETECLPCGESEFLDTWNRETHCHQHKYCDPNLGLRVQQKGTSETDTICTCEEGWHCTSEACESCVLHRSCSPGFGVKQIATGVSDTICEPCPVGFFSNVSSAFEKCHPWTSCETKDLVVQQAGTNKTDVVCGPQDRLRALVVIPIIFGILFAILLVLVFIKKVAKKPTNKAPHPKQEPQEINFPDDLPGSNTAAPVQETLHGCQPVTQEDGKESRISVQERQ
CD40, sequence (P25942 21-277): as above
Im9 (Escherichia coli), sequence (P13479 whole entry): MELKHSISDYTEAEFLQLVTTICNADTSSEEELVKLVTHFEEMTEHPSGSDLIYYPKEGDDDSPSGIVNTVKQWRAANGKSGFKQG
Barnase, sequence (P00648 48-157): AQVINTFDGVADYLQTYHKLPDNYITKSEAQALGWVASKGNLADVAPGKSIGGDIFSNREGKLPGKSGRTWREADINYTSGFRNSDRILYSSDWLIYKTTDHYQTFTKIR
Ribonuclease Inhibitor, sequence (P13489 2-461): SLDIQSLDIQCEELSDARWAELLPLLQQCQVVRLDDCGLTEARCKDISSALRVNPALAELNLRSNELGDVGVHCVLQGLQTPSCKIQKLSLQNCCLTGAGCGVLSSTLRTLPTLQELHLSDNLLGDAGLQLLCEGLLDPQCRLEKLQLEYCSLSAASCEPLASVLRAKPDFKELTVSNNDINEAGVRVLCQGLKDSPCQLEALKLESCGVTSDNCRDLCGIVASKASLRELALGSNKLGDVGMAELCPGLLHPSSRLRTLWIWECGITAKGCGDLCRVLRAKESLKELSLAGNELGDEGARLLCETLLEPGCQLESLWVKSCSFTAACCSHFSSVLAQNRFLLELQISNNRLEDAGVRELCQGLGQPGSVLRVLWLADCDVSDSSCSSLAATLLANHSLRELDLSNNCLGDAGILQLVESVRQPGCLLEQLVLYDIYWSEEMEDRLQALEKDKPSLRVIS
Colicin E9 nuclease, sequence (P09883 449-582): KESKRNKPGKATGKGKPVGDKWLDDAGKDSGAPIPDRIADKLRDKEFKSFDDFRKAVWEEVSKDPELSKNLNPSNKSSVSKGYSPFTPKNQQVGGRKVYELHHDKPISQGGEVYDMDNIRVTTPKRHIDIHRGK
TACI (Homo sapiens), sequence (O14836 whole entry): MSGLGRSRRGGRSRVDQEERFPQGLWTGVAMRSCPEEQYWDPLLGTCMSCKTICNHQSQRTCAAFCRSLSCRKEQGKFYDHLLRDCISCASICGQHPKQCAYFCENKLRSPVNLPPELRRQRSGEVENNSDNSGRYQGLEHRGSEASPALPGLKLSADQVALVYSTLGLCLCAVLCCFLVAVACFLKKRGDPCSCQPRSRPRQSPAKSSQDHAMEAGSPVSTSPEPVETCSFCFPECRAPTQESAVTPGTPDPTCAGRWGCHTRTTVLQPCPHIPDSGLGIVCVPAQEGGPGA
Ribonuclease Inhibitor (Sus scrofa), sequence (P10775 whole entry): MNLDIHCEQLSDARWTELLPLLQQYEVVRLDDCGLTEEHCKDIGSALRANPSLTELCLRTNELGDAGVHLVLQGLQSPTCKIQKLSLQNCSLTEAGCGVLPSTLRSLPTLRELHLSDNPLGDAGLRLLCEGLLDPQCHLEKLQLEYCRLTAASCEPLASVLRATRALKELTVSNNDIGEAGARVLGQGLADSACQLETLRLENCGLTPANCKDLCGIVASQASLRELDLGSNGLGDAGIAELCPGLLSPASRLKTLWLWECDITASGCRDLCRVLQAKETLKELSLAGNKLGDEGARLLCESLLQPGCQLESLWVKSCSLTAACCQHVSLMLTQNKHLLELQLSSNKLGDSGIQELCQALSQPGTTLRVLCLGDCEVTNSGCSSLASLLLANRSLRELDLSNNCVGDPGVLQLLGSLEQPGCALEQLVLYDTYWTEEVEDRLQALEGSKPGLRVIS

Substance: APRIL (from UniProt O75888)
- Kd [1]: 15 nM
- Kd [2]: > 3000 nM

Substance: CD40 (from UniProt P25942)
- Kd [7]: 13 µM

Substance: Colicin E9 nuclease (from UniProt P09883)
- Kd [9]: 0.024 pM

Substance: Ribonuclease A (from UniProt P61823)
- Kd [10]: 0.059 pM
- Kd [11]: 0.059 pM

Substance: trypsinogen (from UniProt P00760)
- Kd [12]: 0.06 pM

Other lines, results leading:

- Kd [3]: 15 nM
- Kd [4]: 13 nM
- Kd [5]: 1500 nM
Substance: BAFF (from UniProt Q9Y275)

- Kd [6]: 0.2 pM
Substance: Barnase (from UniProt P00648)

- Kd [8]: 13 µM
Substance: CD40L (from UniProt P29965)
